Data reported in patent US20240262900A1, “MATERIALS AND METHODS FOR DIFFERENTIATING CREB REGULATEDTRANSCRIPTION COACTIVATOR 3” (JANSSEN BIOTECH, INC., priority 2021, published 2024).

T1: CRTC3 phosphorylated at serine 329 (pSer329) (Homo sapiens, UniProt Q6UUV7)
T1 construct: All recombinant CRTC3 full-length protein versions are preceded with; FLAG (N); AVI (N); made in house; host or cells: Baculovirus expression system
T1 sequence (Q6UUV7 1-619): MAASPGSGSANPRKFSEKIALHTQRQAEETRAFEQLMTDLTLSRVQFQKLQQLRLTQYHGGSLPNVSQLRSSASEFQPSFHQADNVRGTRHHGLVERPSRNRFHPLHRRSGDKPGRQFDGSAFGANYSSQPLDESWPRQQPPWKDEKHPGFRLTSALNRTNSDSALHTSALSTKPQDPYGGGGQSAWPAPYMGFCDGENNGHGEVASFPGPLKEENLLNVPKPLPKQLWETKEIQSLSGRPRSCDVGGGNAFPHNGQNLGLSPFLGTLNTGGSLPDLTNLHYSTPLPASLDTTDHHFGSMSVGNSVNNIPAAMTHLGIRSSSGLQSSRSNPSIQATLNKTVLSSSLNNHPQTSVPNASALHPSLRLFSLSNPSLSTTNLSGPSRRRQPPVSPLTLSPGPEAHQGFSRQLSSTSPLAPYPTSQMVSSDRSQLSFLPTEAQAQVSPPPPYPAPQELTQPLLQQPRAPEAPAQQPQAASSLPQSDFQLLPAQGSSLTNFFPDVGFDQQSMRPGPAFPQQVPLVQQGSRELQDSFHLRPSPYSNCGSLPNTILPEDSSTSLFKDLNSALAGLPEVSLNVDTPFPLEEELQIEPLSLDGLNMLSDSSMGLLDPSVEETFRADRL

T2: CRTC3 phosphorylated at serine 370 (pSer370) (Homo sapiens, UniProt Q6UUV7)
T2 construct: All recombinant CRTC3 full-length protein versions are preceded with; FLAG (N); AVI (N); made in house; host or cells: Baculovirus expression system
T2 sequence (Q6UUV7 1-619): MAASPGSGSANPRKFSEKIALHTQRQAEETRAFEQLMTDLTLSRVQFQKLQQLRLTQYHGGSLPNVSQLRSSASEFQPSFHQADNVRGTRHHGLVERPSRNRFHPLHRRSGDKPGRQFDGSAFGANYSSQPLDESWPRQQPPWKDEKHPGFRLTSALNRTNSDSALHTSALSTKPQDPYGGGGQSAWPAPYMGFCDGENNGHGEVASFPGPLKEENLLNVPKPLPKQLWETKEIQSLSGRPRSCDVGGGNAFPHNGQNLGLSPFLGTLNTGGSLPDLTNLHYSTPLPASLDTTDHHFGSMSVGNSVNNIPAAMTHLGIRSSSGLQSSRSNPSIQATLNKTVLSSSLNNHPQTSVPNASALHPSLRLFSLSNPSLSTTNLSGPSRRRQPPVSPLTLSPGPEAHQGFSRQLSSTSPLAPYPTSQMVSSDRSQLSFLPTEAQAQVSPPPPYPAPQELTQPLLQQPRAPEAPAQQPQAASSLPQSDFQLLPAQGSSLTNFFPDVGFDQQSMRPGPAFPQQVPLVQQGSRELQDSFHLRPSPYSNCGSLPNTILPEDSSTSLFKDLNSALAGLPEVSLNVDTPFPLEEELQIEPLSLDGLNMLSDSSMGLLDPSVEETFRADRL


How the values were obtained:
[1] = target: T1, CRTC3 phosphorylated at serine 329 (pSer329); assay: Immunoblotting of in vitro phosphorylated recombinant CRTC3 wild type vs S329A mutant protein; type: binding; conditions: for specific detection of human CRTC3 by phosphorylation state (conclusion of the experiments): serine 329
From the text: (§1) To facilitate the identification of hybridomas that produced antibodies specific for the phosphorylated immunizing peptides, CRTC3 proteins were designed that harbored serine to alanine mutations at either position 329 (S329A mutant) or 370 (S370A mutant; Table 3) rendering them unable to carry phosphate groups at positions 329 and 370, respectively. In addition, CRTC3 protein harboring the unmutated wild type (WT) amino acid sequence was produced as a control reagent (Table 3). Briefly, proteins were overexpressed in a Baculovirus expression system and purified using M2 anti-flag magnetic beads (Millipore-Sigma). The wild type protein was additionally subjected to subsequent size exclusion chromatography. All purified proteins were phosphorylated in vitro in the presence of internally produced SIK2 variant (6His-MBP-TEV-SIK2-PKD-UBA; SEQ ID NO: 187) and 1 mM ATP (Promega) in a buffer containing 50 mM Tris pH 7.5, 100 mM NaCl, 10 mM MgCl2 (all from Quality Biologicals), 0.1 mM EDTA (Corning), 1 mM DTT (MP Biomedicals). Phosphorylation reactions were quenched by the addition of excess EDTA.
(§2) Immunoblotting was done using the NuPAGE electrophoresis and western Blotting system (Invitrogen). Briefly, 0.1-0.15 microgram of WT or S329A mutant or S370A mutant recombinant protein along with WesternSure® Pre-stained Chemiluminescent Protein Ladder (Li-Cor) were loaded onto NuPAGE® Bis-Tris gels and separated by electrophoresis. Subsequently, proteins were transferred onto nitrocellulose membranes (iBlot® 2 Transfer Stacks, nitrocellulose, mini; ThermoFisher) using an iBlot 2® Gel Transfer Device (ThermoFisher). Specific bands on the nitrocellulose membranes were detected using the automatic Western blot-processing iBind™ Flex Western System (ThermoFisher) as per the manufacturer's recommendations. As primary antibodies served either undiluted hybridoma supernatant or recombinantly expressed mAbs at 0.25 microgram/ml, whereas Peroxidase AffiniPure Donkey Anti-Rabbit IgG (H+L) (Jackson ImmunoResearch) was used as secondary antibody at a 1:4000 dilution. The blots were developed using Amersham ECL Western Blotting Detection Reagent and an ImageQuant LAS4000 image scanner (both GE Healthcare Life Sciences).

[2] = test system: phosphorylated CRTC3 in THP1 lysates; assay: Immunoblotting of lysates of macrophage-differentiated, LPS-stimulated THP1 cells, untreated or incubated with dasatinib; type: binding, human; conditions: recombinant mAb
From the text: as §2
Cells were then either left untreated or incubated with dasatinib at 10 micromolar for 1.5 hours before cell harvest. […] Cells were washed in cold PBS (Gibco) and lysed on ice in 50 mM Tris HCl (Alfa Aesar) at pH 7.4, 1 mM DTT, 1% (vol/vol) Triton X-100 (both ThermoFisher), 1 mM EDTA (Gibco), 1 mM EGTA (Alfa Aesar) supplemented with protease inhibitor (cOmplete™ ULTRA Tablets; Roche) and phosphatase inhibitor (Phosstop, Roche) as per the manufacturer's recommendations for 1 hour. Extracted proteins were harvested by collecting the supernatant after centrifugation of the lysate for 20 minutes. Protein concentrations were determined using the Pierce Detergent-compatible Bradford Assay kit (Pierce). Lysate proteins were separated by gel electrophoresis and detected by immunoblotting as described above. […] That the detected signals indeed corresponded to CRTC3 was verified in independent experiments, in which similarly treated THP1 lysates were developed using an antibody recognizing CRTC3 independent of its phosphorylation status (EPR3440; purified; rabbit; Abcam; data not shown).

[3] = target: T2, CRTC3 phosphorylated at serine 370 (pSer370); assay: Immunoblotting of in vitro phosphorylated recombinant CRTC3 wild type vs S370A mutant protein; type: binding; conditions: for specific recognition of human CRTC3 by phosphorylation state (conclusion of the experiments): serine 370
From the text: as §1, §2

[4] = recombinantly expressed mAb at 0.25 microgram/ml, FIG. 2C
[5] = undiluted hybridoma tissue culture supernatant as primary antibody, FIG. 2A
[6] = THP1 lysates not incubated with a SIK inhibitor (lane 3)
[7] = THP1 lysates treated for 1.5 hours with dasatinib at 10 micromolar (lane 4)
[8] = recombinant mAb at 0.25 microgram/ml, FIG. 2D
[9] = undiluted hybridoma supernatant as primary antibody, FIG. 2B

| Molecule | recognition of recombinant CRTC3 WT vs S329A variant by western blot [1, 4] | specific detection of human CRTC3 by phosphorylation state (conclusion of the experiments) [1] | recognition of recombinant CRTC3 WT vs S329A variant by western blot [1, 5] | immunoblot signal at the expected molecular size in THP1 lysates [2, 6] | immunoblot signal at the expected molecular size in THP1 lysates [2, 7] | signal with recombinant CRTC3 WT vs S370A mutant by western blot [3, 8] | specific recognition of human CRTC3 by phosphorylation state (conclusion of the experiments) [3] | signal with recombinant CRTC3 WT vs S370A mutant by western blot [3, 9] |
| --- | --- | --- | --- | --- | --- | --- | --- | --- |
| mAb #21: anti-phospho-Serine329 CRTC3 monoclonal antibody from rabbit hybridoma; VH SEQ ID NO: 99, VL SEQ ID NO: 100 (antibody, V domains shown) VH: QSVEESGGRLVTPGTPLTLTCTVSGIDLSSNTVSWVRQAPGKGLEWIGVSGYSGRPYYASWAKGRFTISKTSSTVHLKITSPTAEDTATYFCARGSVNVNIWGPGTLVTVSS VL: AQVLTQTASPVSAAVGGTVTINCQSSQSVYSSNRLSWFQQKPGQPPKLLMYYTSTLASGVPSRFKGSGSGTEFTLTISGVQCDDAATYYCLGGYDCDIADCSAFGGGTEVVVK | specifically recognized only recombinant CRTC3 protein harboring the WT sequence | specifically detected human CRTC3 only when phosphorylated at serine 329 | specifically recognized only recombinant CRTC3 protein harboring the WT sequence | strong signal | strongly diminished |  |  |  |
| mAb #82: anti-phospho-Serine329 CRTC3 monoclonal antibody from rabbit hybridoma; VH SEQ ID NO: 133, VL SEQ ID NO: 134 (antibody, V domains shown) VH: QSVEESGGRLVTPGTPLTLTCTVSGIDLSSNTVSWVRQAPGKGLEWIGVIGYSGNGYYASWAKGRFTISKTSTTVDLKMTSPTAEDTATYFCARGSVNCNIWGPGTLVTVSS VL: AQVLTQTASPVSAAVGGTVTINCQSSQSVISNNRLSWLQQKPGQPPKLLIYYASTLASGVPSRFKGSGSGTQFTLTISGVQCDDAATYYCLGGYDCNSADCSTFGGGTEVVVK | specifically recognized only recombinant CRTC3 protein harboring the WT sequence | specifically detected human CRTC3 only when phosphorylated at serine 329 | specifically recognized only recombinant CRTC3 protein harboring the WT sequence | strong signal | strongly diminished |  |  |  |
| mAb #170: anti-phospho-Serine370 CRTC3 monoclonal antibody from rabbit hybridoma; VH SEQ ID NO: 65, VL SEQ ID NO: 66 (antibody, V domains shown) VH: QSMKESEGGLFKPTDTLTLTCTVSGFSLSRYGVIWVRQAPGKGLEFIGYISSTGSTYYASWAKSRSTITRNTNENTVTLKVTSLTAADTATYFCAQSGLGYDGGRNIWGPGTLVTVSS VL: AAVLTQTPSPVSAAVGGTVSISCQSSKSVANSNWLSWYQQKPGQPPKLLIYSASTLASGAPSRFKGSGSGTQFTLTISDVQCDDAATYYCAGGYSDISDIFGFGGGTEVVVK |  |  |  | strong signal | strongly diminished | specific signal only with WT | specifically recognized human CRTC3 only when phosphorylated at serine 370 | specific signal only with WT |
| mAb #157: anti-phospho-Serine370 CRTC3 monoclonal antibody from rabbit hybridoma; VH SEQ ID NO: 31, VL SEQ ID NO: 32 (antibody, V domains shown) VH: QEQLKESGGGLFKPMDILTVTCTVSGISLSSYGLSWVRQAPGNGLEWIGAIGASGSAYYASWAKSRSTITRNTNLNTVTLKMTSLTAADTATYFCKRNYIWGPGTLVTVSS VL: AQVLTQTASPVSAAVGGTVTINCQASQSVYSDNRLSWYQQKPGQPPKLLIYEASKLASGVPPRFSGSGSGTQFTLAISGVQCDDAATYYCQGSYDCNSADCSAFGGGTEVVVK |  |  |  | strong signal | strongly diminished | specific signal only with WT | specifically recognized human CRTC3 only when phosphorylated at serine 370 | specific signal only with WT |
